# Experiments:
# HeLa Kyoto [1] = test: solubility in G1/S (NP-40 vs SDS abundance) (log2 ratio); higher = more soluble; details: cell cycle stage: G1/S
# HeLa Kyoto [2] = test: melting temperature (median over replicates), in situ; higher = more thermally stable
# HeLa Kyoto [3] = test: solubility change mitosis vs G1/S (difference of NP-40 vs SDS log2 ratios) (log2 ratio difference); higher = more soluble in mitosis
# HeLa Kyoto [4] = test: thermal stability score vs G1/S (z-score of summed log2 fold changes over temperatures); higher = more thermally stable than in G1/S
# [5] = cell cycle stage: early G1 (4.5 h after nocodazole release)
# 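Throughout, for melting temperature (median over replicates), in situ: HeLa Kyoto cells synchronized by double thymidine or nocodazole block, proteins quantified by TMT10plex mass spectrometry, three independent biological replicates.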
# 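Throughout, for solubility change mitosis vs G1/S (difference of NP-40 vs SDS log2 ratios): synchronized HeLa Kyoto cells (double thymidine block for G1/S, nocodazole release for mitosis), protein amounts in NP-40 versus SDS lysates quantified by mass spectrometry, three biological replicates.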
# 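Throughout, for solubility in G1/S (NP-40 vs SDS abundance): HeLa Kyoto cells arrested at G1/S by double thymidine block, proteins quantified by TMT10plex mass spectrometry in mild NP-40 versus SDS extracts, three biological replicates.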
# 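Throughout, for thermal stability score vs G1/S (z-score of summed log2 fold changes over temperatures): synchronized HeLa Kyoto cells, proteins quantified by TMT10plex mass spectrometry, three biological replicates, mitosis taken 0.5 h after nocodazole release, G1/S directly after double thymidine block.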
Substance,solubility in G1/S (log2) (HeLa Kyoto [1]),melting temperature (HeLa Kyoto [2]; cell cycle stage: G1/S) [°C],melting temperature (HeLa Kyoto [2]; cell cycle stage: mitosis) [°C],solubility change mitosis (log2) (HeLa Kyoto [3]),thermal stability score (HeLa Kyoto [4]; [5]),thermal stability score (HeLa Kyoto [4]; cell cycle stage: mitosis)
MVLESTMVCVDNSEYMRNGDFLPTRLQAQQDAVNIVCHSKTRSNPENNVGLITLANDCEVLTTLTPDTGRILSKLHTVQPKGKITFCTGIRVAHLALKHRQGKNHKMRIIAFVGSPVEDNEKDLVKLAKRLKKEKVNVDIINFGEEEVNTEKLTAFVNTLNGKDGTGSHLVTVPPGPSLADALISSPILAGEGGAMLGLGASDFEFGVDPSADPELALALRVSMEEQRQRQEEEARRAAAASAAEAGIATTGTEDSDDALLKMTISQQEFGRTGLPDLSSMTEEEQIAYAMQMSLQGAEFGQAESADIDASSAMDTSEPAKEEDDYDVMQDPEFLQSVLENLPGVDPNNEAIRNAMGSLASQATKDGKKDKKEEDKK [PSMD4],0.287,53.3,53.9,-0.0985,-0.808,-1.22
PRRC2C,-0.328,55.6,55.2,0.111,-0.644,-2.2
MFIKGRAPRAPPRERRRATRGGLRQVVAPPRALGSTSRPHFRRASVCRRRCRKSGGLLAASRKMAAAAVNGAAGFSSSGPAATSGAVLQAATGMYEQLKGEWNRKSPNLSKCGEELGRLKLVLLELNFLPTTGTKLTKQQLILARDILEIGAQWSILRKDIPSFERYMAQLKCYYFDYKEQLPESAYMHQLLGLNLLFLLSQNRVAEFHTELERLPAKDIQTNVYIKHPVSLEQYLMEGSYNKVFLAKGNIPAESYTFFIDILLDTIRDEIAGCIEKAYEKILFTEATRILFFNTPKKMTDYAKKRGWVLGPNNYYSFASQQQKPEDTTIPSTELAKQVIEYARQLEMIV [PSMD8],0.278,53.4,54.5,0.0108,-1.02,-0.0502
MTTYLEFIQQNEERDGVRFSWNVWPSSRLEATRMVVPVAALFTPLKERPDLPPIQYEPVLCSRTTCRAVLNPLCQVDYRAKLWACNFCYQRNQFPPSYAGISELNQPAELLPQFSSIEYVVLRGPQMPLIFLYVVDTCMEDEDLQALKESMQMSLSLLPPTALVGLITFGRMVQVHELGCEGISKSYVFRGTKDLSAKQLQEMLGLSKVPLTQATRGPQVQQPPPSNRFLQPVQKIDMNLTDLLGELQRDPWPVPQGKRPLRSSGVALSIAVGLLECTFPNTGARIMMFIGGPATQGPGMVVGDELKTPIRSWHDIDKDNAKYVKKGTKHFEALANRAATTGHVIDIYACALDQTGLLEMKCCPNLTGGYMVMGDSFNTSLFKQTFQRVFTKDMHGQFKMGFGGTLEIKTSREIKISGAIGPCVSLNSKGPCVSENEIGTGGTCQWKICGLSPTTTLAIYFEVVNQHNAPIPQGGRGAIQFVTQYQHSSGQRRIRVTTIARNWADAQTQIQNIAASFDQEAAAILMARLAIYRAETEEGPDVLRWLDRQLIRLCQKFGEYHKDDPSSFRFSETFSLYPQFMFHLRRSSFLQVFNNSPDESSYYRHHFMRQDLTQSLIMIQPILYAYSFSGPPEPVLLDSSSILADRILLMDTFFQILIYHGETIAQWRKSGYQDMPEYENFRHLLQAPVDDAQEILHSRFPMPRYIDTEHGGSQARFLLSKVNPSQTHNNMYAWGQESGAPILTDDVSLQVFMDHLKKLAVSSAA [SEC23A],-0.0681,50,50.2,-0.0745,-0.157,0.129
MPYQYPALTPEQKKELSDIAHRIVAPGKGILAADESTGSIAKRLQSIGTENTEENRRFYRQLLLTADDRVNPCIGGVILFHETLYQKADDGRPFPQVIKSKGGVVGIKVDKGVVPLAGTNGETTTQGLDGLSERCAQYKKDGADFAKWRCVLKIGEHTPSALAIMENANVLARYASICQQNGIVPIVEPEILPDGDHDLKRCQYVTEKVLAAVYKALSDHHIYLEGTLLKPNMVTPGHACTQKFSHEEIAMATVTALRRTVPPAVTGITFLSGGQSEEEASINLNAINKCPLLKPWALTFSYGRALQASALKAWGGKKENLKAAQEEYVKRALANSLACQGKYTPSGQAGAAASESLFVSNHAY [ALDOA],0.345,58.2,58.5,-0.0218,-1.95,-2.35

# From the supplement of paper PMC5998384
